For one molecule, Kd results are on record in PMC11705640, “Tubulointerstitial nephritis antigen-like 1 promotes the progression of liver fibrosis after HCV eradication with direct-acting antivirals” (International Journal of Biological Sciences, 2025).

The assay deals with T1, recombinant human TINAGL1 protein (tubulointerstitial nephritis antigen-like 1), C-6×His (human, UniProt Q9GZM7 22-467).
T1 construct: tubulointerstitial nephritis antigen-like 1 (TINAGL1), human, recombinant; Bought protein; Held on the Ni-NTA chip by its C-terminal His tag; also called rhTINAGL1; source: bought: Novoprotein (Cat# CB22); not shown: His6, C-terminal, kept
T1 sequence (looked up): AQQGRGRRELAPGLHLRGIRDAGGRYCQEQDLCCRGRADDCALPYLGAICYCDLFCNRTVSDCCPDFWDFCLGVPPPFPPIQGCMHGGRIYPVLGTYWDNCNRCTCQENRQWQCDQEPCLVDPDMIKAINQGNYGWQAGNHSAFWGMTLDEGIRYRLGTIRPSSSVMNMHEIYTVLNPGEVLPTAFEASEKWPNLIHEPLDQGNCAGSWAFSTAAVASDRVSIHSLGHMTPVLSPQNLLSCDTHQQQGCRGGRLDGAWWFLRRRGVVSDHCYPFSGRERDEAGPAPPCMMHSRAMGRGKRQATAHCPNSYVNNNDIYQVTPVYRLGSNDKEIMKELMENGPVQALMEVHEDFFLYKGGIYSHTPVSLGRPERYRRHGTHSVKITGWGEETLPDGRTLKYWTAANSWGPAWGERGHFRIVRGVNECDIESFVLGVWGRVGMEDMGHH
The assay is described as follows: SPR; rhTINAGL1 (C-6×His) immobilised on Ni-NTA chip (Reichert 4SPR, 40 mM nickel sulfate); dilution series of rhPDGF-BB in PBST injected at 62.5 μL/min; association 4 min, dissociation 5 min; TraceDrawer v1.8.1. The settings on record: both partners purified.

Broadly, the Kd is the constant that tells how readily two partners part at equilibrium.

B1: recombinant human PDGF-BB (platelet-derived growth factor-BB) (ligand, UniProt P01127 82-190, looked up)
chain: SLGSLTIAEPAMIAECKTRTEVFEISRRLIDRTNANFLVWPPCVEVQRCSGCCNNRNVQCRPTQVQLRPVQVRKIEIVRKKPIFKKATVTLEDHLACKCETVAAARPVT
notes: platelet-derived growth factor subunit B, human, recombinant PDGF-BB; also called rhPDGF-BB; source: bought: Peprotech (Cat# 100-14B)
For the molecule B1, the Kd was found to be 185 nM.
